According to patent publication US20240093162:

T1: Pro-Tgase variant (thermostable variant of Streptomyces mobaraensis Tgase in zymogen form)
T1 chain: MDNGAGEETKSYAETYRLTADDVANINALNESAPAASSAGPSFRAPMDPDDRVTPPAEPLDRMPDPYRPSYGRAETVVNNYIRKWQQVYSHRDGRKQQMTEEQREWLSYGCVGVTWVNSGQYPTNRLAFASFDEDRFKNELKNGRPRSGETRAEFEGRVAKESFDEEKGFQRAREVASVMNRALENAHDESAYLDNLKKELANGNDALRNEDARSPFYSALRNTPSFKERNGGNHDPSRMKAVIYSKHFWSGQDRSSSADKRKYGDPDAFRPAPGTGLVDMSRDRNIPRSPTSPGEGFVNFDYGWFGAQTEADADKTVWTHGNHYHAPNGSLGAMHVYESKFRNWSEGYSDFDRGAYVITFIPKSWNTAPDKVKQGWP

T2: FRAP-Tgase variant (thermostable variant of Streptomyces mobaraensis Tgase having a FRAP tetrapeptide at the N-terminal end)
T2 chain: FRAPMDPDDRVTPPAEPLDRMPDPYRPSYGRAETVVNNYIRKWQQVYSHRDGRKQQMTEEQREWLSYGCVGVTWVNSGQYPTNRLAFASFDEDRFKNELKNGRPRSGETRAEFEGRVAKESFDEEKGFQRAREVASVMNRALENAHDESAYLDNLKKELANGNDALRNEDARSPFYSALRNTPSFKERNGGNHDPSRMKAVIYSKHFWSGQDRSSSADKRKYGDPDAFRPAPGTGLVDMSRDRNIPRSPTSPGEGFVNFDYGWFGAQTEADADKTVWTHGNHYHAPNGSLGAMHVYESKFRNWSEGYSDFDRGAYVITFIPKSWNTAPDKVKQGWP

B1: Streptomyces mobaraensis transglutaminase-activating M4 metalloprotease (TAMEP), mature, catalytically active form (protein)
chain: GTGNSQHSGQVQIGTTKSGSSYQMNDTTRGGHKTYNLNHGSSGTGTLFTDSDDVWGNGTNSDPATAGVDAHYGAQLTWDYYKNVHGRNGIRGDGVGAYSRVHYGNNYVNAFWDDSCFCMTYGDGNGIPLTSIDVAAHEMTHGVTSATANLTYSGESGGLNEATSDMMATAVEFWANNPADPGDYLIGEKININGDGTPLRYMDKPSKDGASKDAWYSGLGGIDVHYSSGPANHWFYLASEGSGPKDIGGVHYDSPTSDGLPVTGVGRDNAAKIWFKALTERMQSNTDYKGARDATLWAAGELFGVNSDTYNNVANAWAAINVGPRASSGVSVTSPGDQTSIVNQAVSLQIKATGSTSGALTYSATGLPAGLSINASTGLISGTPTTTGTSNVTVTVKDSAGKTGSTSFKWTVNTTGGGSVFENTTQVAIPDAGAAVTSPIVVTRSGNGPSALKVDVNITHTYRGDLTIDLVAPNGKTWRLKNSDAWDSAADVSETYTVDASSVSANGTWKLKVQDVYSGDSGTIDKWRLTF
B2: Streptomyces mobaraensis transglutaminase-activating tripeptidyl aminopeptidase (SM-TAP), mature, catalytically active form (protein)
chain: QADIKDRILKIPGMKFVEEKPYQGYRYLVMTYRQPVDHRNPGKGTFEQRFTLLHKDTDRPTVFFTSGYNVSTNPSRSEPTRIVDGNQVSMEYRFFTPSRPQPADWSKLDIWQAASDQHRLYQALKPVYGKNWLATGGSKGGMTATYFRRFYPNDMNGTVAYVAPNDVNDKEDSAYDKFFQNVGDKACRTQLNSVQREALVRRDEIVARYEKWAKENGKTFKVVGSADKAYENVVLDLVWSFWQYHLQSDCASVPATKASTDELYKFIDDISGFDGYTDQGLERFTPYYYQAGTQLGAPTVKNPHLKGVLRYPGINQPRSYVPRDIPMTFRPGAMADVDRWVREDSRNMLFVYGQNDPWSGEPFRLGKGAAARHDYRFYAPGGNHGSNIAQLVADERAKATAEVLKWAGVAPQAVQKDEKAAKPLAPFDAKLDRVKNDKQSALRP

What was measured:
[1] = target: T1, Pro-Tgase variant (thermostable variant …)
[2] = target: T2, FRAP-Tgase variant (thermostable …)

Row | Protein | proteolytic cleavage by soluble TAMEP: UPLC-MS total ion counts of the cleaved pro-peptide, and N-terminal sequencing [1] | proteolytic digestion by TAMEP immobilized on porous solid supports: UPLC-MS, colorimetric Tgase activity assay, N-terminal sequencing [1] | proteolytic digestion by co-immobilized TAMEP and SM-TAP: UPLC-MS FRAP tetrapeptide area counts [1] | proteolytic cleavage by soluble SM-TAP: UPLC-MS total area count of FRAP tetrapeptide, and N-terminal sequencing [2] | proteolytic digestion by SM-TAP immobilized on porous solid supports: UPLC-MS, colorimetric Tgase activity assay, N-terminal sequencing [2] | proteolytic digestion by co-immobilized TAMEP and SM-TAP: UPLC-MS FRAP tetrapeptide area counts, N-terminal sequencing [2]
1 | B1 | N-terminal peptide sequencing, performed as described in Example 2 above, confirmed that the FRAP amino acid sequence was present on the N-terminal end of the catalytically active, not mature FRAP-Tgase variant (SEQ ID NO:5) | Activity assay results showed that TAMEP retained protease activity when immobilized on all the porous solid supports shown in Table 2 | Activity assay results showed that co-immobilized TAMEP and SM-TAP retained protease activity on all the porous solid supports set forth in Table 3 below | – | – | –
2 | B2 | – | – | – | N-terminal peptide sequencing, performed as described in Example 2 above, confirmed that the FRAP tetrapeptide had been removed from the N-terminal end of the FRAP-Tgase variant (SEQ ID NO:5) resulting in a mature, catalytically active Tgase variant (SEQ ID NO:6) | Activity assay results showed that SM-TAP retained protease activity when immobilized on all the porous solid supports shown in Table 2 | Activity assay results showed that co-immobilized TAMEP and SM-TAP retained protease activity on all the porous solid supports set forth in Table 3 below
